In patent publication US20050074845A1 (Sanofi, published 2005):

Target: T1, human GLUT4 (human, UniProt P14672 1-509, limits assumed)
T1 construct: The ubiquitin-half fusion partners and the limits of the construct are not described; also called Glut 4 transporter
T1 sequence (looked up): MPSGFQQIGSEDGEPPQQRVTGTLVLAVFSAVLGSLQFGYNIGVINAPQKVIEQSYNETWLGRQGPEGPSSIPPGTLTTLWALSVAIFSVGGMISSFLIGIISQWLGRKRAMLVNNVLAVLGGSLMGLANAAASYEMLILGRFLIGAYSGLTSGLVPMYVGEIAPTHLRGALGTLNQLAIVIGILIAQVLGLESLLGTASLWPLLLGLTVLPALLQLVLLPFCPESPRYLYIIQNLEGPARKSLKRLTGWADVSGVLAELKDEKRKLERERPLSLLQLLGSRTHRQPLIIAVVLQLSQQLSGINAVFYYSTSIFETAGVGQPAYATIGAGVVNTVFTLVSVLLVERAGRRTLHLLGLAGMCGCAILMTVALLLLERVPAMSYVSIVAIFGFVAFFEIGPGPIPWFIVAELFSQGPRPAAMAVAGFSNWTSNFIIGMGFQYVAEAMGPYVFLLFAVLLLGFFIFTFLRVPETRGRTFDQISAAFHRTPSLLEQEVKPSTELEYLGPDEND
Experiment: split-ubiquitin protein interaction assay in yeast

binding result: binds
B1: yeast Erg4 (enzyme)
chain: not shown
notes: The ubiquitin-half fusion partners and the limits of the construct are not described; also called Erg4 protein; sterol C-24(28)-reductase
